1 molecule from article PMC11685595 (Scientific Reports, 2024) can be followed below.

Holding throughout (experiment): other fluorescence titration; intrinsic Trp fluorescence quenching, plate-based (96-well), 0-750 µM peptide added to 8 µM enzyme.Ni(II) (1:2), anaerobic preparation, 10 min at 25 °C, 50 mM Tris pH 7.5, 0.4 M NaCl; λex/λem 280/350 nm; fit to one-site specific binding with or without Hill slope
Holding throughout (settings): both partners purified

The target in test [1] is T1, AtHRE1_(2-15) 14-mer peptide (Arabidopsis thaliana, UniProt Q8H0T5 2-15).
T1 construct: HRE1, Arabidopsis thaliana ERFVII, Cys-initiating residues 2-15; source: synthetic peptide (GL Biochem, China)

Test [2] addresses T2, AtRAP2.12_(2-15) 14-mer peptide (Arabidopsis thaliana, UniProt Q9SSA8 2-15).
T2 construct: RELATED TO AP-2.12 (RAP2.12), Arabidopsis thaliana ERFVII, Cys-initiating residues 2-15; also called RAP2_(2-15); source: synthetic peptide (GL Biochem, China)

Test [3] addresses T3, AtZPR2_(2-15) 14-mer peptide (Arabidopsis thaliana, UniProt Q9LZX5 2-15).
T3 construct: Little Zipper 2 (ZPR2), Arabidopsis thaliana, Cys-initiating residues 2-15; source: synthetic peptide (GL Biochem, China)

The target in test [4] is T4, AtVRN2_(2-15) 14-mer peptide (Arabidopsis thaliana, UniProt Q8W5B1 2-15).
T4 construct: Polycomb group protein Vernalisation 2 (VRN2), Arabidopsis thaliana, Cys-initiating residues 2-15; source: synthetic peptide (GL Biochem, China)

B1: Arabidopsis thaliana Plant Cysteine Oxidase 5, Ni(II)-substituted (AtPCO5.Ni(II)) (enzyme)
chain: not shown
notes: Plant Cysteine Oxidase 5 (AtPCO5), Arabidopsis thaliana; Active-site Fe(II) removed and replaced with Ni(II) (enzyme:metal 1:2)
B1: the Kd in test [1] turned out to be 223 ± 10.3 µM; in test [2], 258 ± 14.3 µM; in test [3], 692 ± 513 µM; in test [4] it was 107 ± 29.7 µM.
